Source: publication PMC5370111, “Biophysical characterization of the b-HLH-LZ of ΔMax, an alternatively spliced isoform of Max found in tumor cells: Towards the validation of a tumor suppressor role for the Max homodimers”

Experiments:
[1] = tested on: Max* in heterodimer;ΔMax* in heterodimer V99G;R100E;A101S;L102E;E103S (;), P61244+P61244-3; experiment: fluorescence anisotropy; details: 37 C, 1:1 mixture, apparent 1/KBinding, internal fluorescein-dT (iFluorT) at position 4, FA: 15 nM dsDNA, 50 mM Tris, 50 mM KCl, pH 7.5, 37 C, EMSA: 250 nM DNA, 20 mM Tris-HCl, 75 mM KCl, 2.5 mM TCEP, 25 ug/mL BSA, 5% glycerol, pH 8.0, room temp …
[2] = tested on: ΔMax* in heterodimer;c-Myc* in heterodimer V99G;R100E;A101S;L102E;E103S (;), P61244-3+P01106; experiment: fluorescence anisotropy; details: 37 C, 1:1 mixture, apparent 1/KBinding, internal fluorescein-dT (iFluorT) at position 4, FA: 15 nM dsDNA, 50 mM Tris, 50 mM KCl, pH 7.5, 37 C, EMSA: 250 nM DNA, 20 mM Tris-HCl, 75 mM KCl, 2.5 mM TCEP, 25 ug/mL BSA, 5% glycerol, pH 8.0, room temp …
[3] = tested on: ΔMax* (b-HLH-LZ of ΔMax splice isoform) V99G;R100E;A101S;L102E;E103S, P61244-3; experiment: fluorescence anisotropy; details: 37 C; apparent 1/KBinding of dimer; 1/KDimer 220 ± 20 nM; internal fluorescein-dT (iFluorT) at position 4; FA: 15 nM dsDNA, 50 mM Tris, 50 mM KCl, pH 7.5, 37 C; EMSA: 250 nM DNA, 20 mM Tris-HCl, 75 mM KCl, 2.5 mM TCEP, 25 ug/mL BSA, 5% glycerol, pH 8.0, room temp …
[4] = molecular target: T1, Max* (b-HLH-LZ of WT Max) (UniProt P61244 22-103); experiment: CD thermal denaturation; complex T° 43.7 C; less stable than E-box; FA: 15 nM dsDNA, 50 mM Tris, 50 mM KCl, pH 7.5, 37 C; EMSA: 250 nM DNA, 20 mM Tris-HCl, 75 mM KCl, 2.5 mM TCEP, 25 ug/mL BSA, 5% glycerol, pH 8.0, room temp; CD: 25 mM KH2PO4, 25 mM Na2HPO4, 50 mM KCl, 1 mM TCEP, pH 6.8; details: protein: recombinant; tags: C-terminal GSGC stated for the deltaMax* construct only; not restated for Max*; chain copies: 2; blunt, self-complementary palindrome
[5] = molecular target: T2, c-Myc* (b-HLH-LZ of c-Myc) (UniProt P01106 368-451); experiment: CD thermal denaturation; stable complex; FA: 15 nM dsDNA, 50 mM Tris, 50 mM KCl, pH 7.5, 37 C; EMSA: 250 nM DNA, 20 mM Tris-HCl, 75 mM KCl, 2.5 mM TCEP, 25 ug/mL BSA, 5% glycerol, pH 8.0, room temp; CD: 25 mM KH2PO4, 25 mM Na2HPO4, 50 mM KCl, 1 mM TCEP, pH 6.8; details: protein: recombinant; chain copies: 2; blunt, self-complementary palindrome
[6] = molecular target: T1, Max* (b-HLH-LZ of WT Max); experiment: CD thermal denaturation; complex T° 56.1 C; FA: 15 nM dsDNA, 50 mM Tris, 50 mM KCl, pH 7.5, 37 C; EMSA: 250 nM DNA, 20 mM Tris-HCl, 75 mM KCl, 2.5 mM TCEP, 25 ug/mL BSA, 5% glycerol, pH 8.0, room temp; CD: 25 mM KH2PO4, 25 mM Na2HPO4, 50 mM KCl, 1 mM TCEP, pH 6.8; details: protein: recombinant; tags: C-terminal GSGC stated for the deltaMax* construct only; not restated for Max*; chain copies: 2; blunt, self-complementary palindrome
[7] = molecular target: Max* in heterodimer;c-Myc* in heterodimer (;, UniProt P61244;P01106 22-103;368-451, |); experiment: EMSA; room temperature; Max*/Max* complex also seen at 2:1 excess of c-Myc*; FA: 15 nM dsDNA, 50 mM Tris, 50 mM KCl, pH 7.5, 37 C; EMSA: 250 nM DNA, 20 mM Tris-HCl, 75 mM KCl, 2.5 mM TCEP, 25 ug/mL BSA, 5% glycerol, pH 8.0, room temp; CD: 25 mM KH2PO4, 25 mM Na2HPO4, 50 mM KCl, 1 mM TCEP, pH 6.8; details: protein: recombinant;recombinant; tags: ;; copies: 1;1; label: fluorescein; blunt, self-complementary palindrome
[8] = molecular target: T1, Max* (b-HLH-LZ of WT Max); experiment: fluorescence anisotropy; 37 C; apparent 1/KBinding of dimer; 1/KDimer 8.6 ± 1.2 nM; FA: 15 nM dsDNA, 50 mM Tris, 50 mM KCl, pH 7.5, 37 C; EMSA: 250 nM DNA, 20 mM Tris-HCl, 75 mM KCl, 2.5 mM TCEP, 25 ug/mL BSA, 5% glycerol, pH 8.0, room temp; CD: 25 mM KH2PO4, 25 mM Na2HPO4, 50 mM KCl, 1 mM TCEP, pH 6.8; details: protein: recombinant; tags: C-terminal GSGC stated for the deltaMax* construct only; not restated for Max*; chain copies: 2; label: fluorescein; blunt, self-complementary palindrome
[9] = molecular target: T2, c-Myc* (b-HLH-LZ of c-Myc); experiment: fluorescence anisotropy; 37 C; apparent 1/KBinding of dimer; 1/KDimer 0.48 ± 0.5 nM; FA: 15 nM dsDNA, 50 mM Tris, 50 mM KCl, pH 7.5, 37 C; EMSA: 250 nM DNA, 20 mM Tris-HCl, 75 mM KCl, 2.5 mM TCEP, 25 ug/mL BSA, 5% glycerol, pH 8.0, room temp; CD: 25 mM KH2PO4, 25 mM Na2HPO4, 50 mM KCl, 1 mM TCEP, pH 6.8; details: protein: recombinant; chain copies: 2; label: fluorescein; blunt, self-complementary palindrome
[10] = molecular target: T1, Max* (b-HLH-LZ of WT Max); experiment: fluorescence anisotropy; 37 C; apparent 1/KBinding of dimer; 1/KDimer 55 ± 7 nM; FA: 15 nM dsDNA, 50 mM Tris, 50 mM KCl, pH 7.5, 37 C; EMSA: 250 nM DNA, 20 mM Tris-HCl, 75 mM KCl, 2.5 mM TCEP, 25 ug/mL BSA, 5% glycerol, pH 8.0, room temp; CD: 25 mM KH2PO4, 25 mM Na2HPO4, 50 mM KCl, 1 mM TCEP, pH 6.8; details: protein: recombinant; tags: C-terminal GSGC stated for the deltaMax* construct only; not restated for Max*; chain copies: 2; label: fluorescein; blunt, self-complementary palindrome
[11] = molecular target: T2, c-Myc* (b-HLH-LZ of c-Myc); experiment: fluorescence anisotropy; 37 C; apparent 1/KBinding of dimer; 1/KDimer 8.5 ± 3 nM; FA: 15 nM dsDNA, 50 mM Tris, 50 mM KCl, pH 7.5, 37 C; EMSA: 250 nM DNA, 20 mM Tris-HCl, 75 mM KCl, 2.5 mM TCEP, 25 ug/mL BSA, 5% glycerol, pH 8.0, room temp; CD: 25 mM KH2PO4, 25 mM Na2HPO4, 50 mM KCl, 1 mM TCEP, pH 6.8; details: protein: recombinant; chain copies: 2; label: fluorescein; blunt, self-complementary palindrome

T1 sequence (P61244 22-103): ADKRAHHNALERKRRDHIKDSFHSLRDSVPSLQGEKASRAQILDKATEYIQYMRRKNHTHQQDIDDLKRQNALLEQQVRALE
T2 sequence (P01106 368-451): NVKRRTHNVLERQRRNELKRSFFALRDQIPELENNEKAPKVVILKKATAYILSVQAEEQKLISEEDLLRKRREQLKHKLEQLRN
Chain of ΔMax* in heterodimer;c-Myc* in heterodimer V99G;R100E;A101S;L102E;E103S (;), P61244-3+P01106 (P01106 whole entry, looked up, chain 1 of 2, canonical isoform): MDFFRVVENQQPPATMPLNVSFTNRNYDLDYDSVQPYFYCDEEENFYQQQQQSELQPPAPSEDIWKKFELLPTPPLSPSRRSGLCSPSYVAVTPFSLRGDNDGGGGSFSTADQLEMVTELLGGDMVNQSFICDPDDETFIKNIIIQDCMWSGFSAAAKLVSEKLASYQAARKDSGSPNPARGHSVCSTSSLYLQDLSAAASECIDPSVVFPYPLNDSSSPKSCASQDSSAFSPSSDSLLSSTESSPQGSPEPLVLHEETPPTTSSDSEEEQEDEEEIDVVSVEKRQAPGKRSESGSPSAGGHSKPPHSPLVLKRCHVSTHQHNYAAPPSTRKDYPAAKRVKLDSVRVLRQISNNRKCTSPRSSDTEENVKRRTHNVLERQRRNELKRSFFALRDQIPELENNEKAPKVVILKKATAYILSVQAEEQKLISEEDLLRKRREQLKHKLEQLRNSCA
Chain of ΔMax* in heterodimer;c-Myc* in heterodimer V99G;R100E;A101S;L102E;E103S (;), P61244-3+P01106 (P61244 whole entry, looked up, stated change not applied, chain 2 of 2, canonical isoform): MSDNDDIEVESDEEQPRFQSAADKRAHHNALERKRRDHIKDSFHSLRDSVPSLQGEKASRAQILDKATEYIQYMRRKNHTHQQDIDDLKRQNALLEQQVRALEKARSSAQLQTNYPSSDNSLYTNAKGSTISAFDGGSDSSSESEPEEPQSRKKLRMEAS
Chain of Max* in heterodimer;ΔMax* in heterodimer V99G;R100E;A101S;L102E;E103S (;), P61244+P61244-3 (P61244 whole entry V99G/R100E/A101S/L102E/E103S, looked up, one chain of several): as the sequence (P61244 whole entry, looked up, stated change not applied, chain 2 of 2, canonical isoform) above, with V99G, R100E, A101S, L102E, E103S counted along it
Chain of Max* in heterodimer;c-Myc* in heterodimer (P61244 22-103, chain 1 of 2): as the sequence (P61244 22-103) above
Chain of Max* in heterodimer;c-Myc* in heterodimer (P01106 368-451, chain 2 of 2): as the sequence (P01106 368-451) above
Chain of ΔMax* (b-HLH-LZ of ΔMax splice isoform) V99G;R100E;A101S;L102E;E103S, P61244-3 (P61244 whole entry V99G/R100E/A101S/L102E/E103S, looked up, canonical isoform): as the sequence (P61244 whole entry, looked up, stated change not applied, chain 2 of 2, canonical isoform) above, with V99G, R100E, A101S, L102E, E103S counted along it

With “GAGTAGGGATCCCTACTC (double strand) [Non-specific DNA, fluorescein-labeled]” the Kd ([1]; 1/KDimer 460 ± 34 nM) was 40 nM and the Kd ([2]; 1/KDimer 38 ± 5 nM) was 11 nM.

In the case of “GAGTAGCACGTGCTACTC (double strand) [E-box, fluorescein-labeled]”, the Kd ([1]; 1/KDimer 120 ± 10 nM) is reported as 4 nM, the Kd [3] is reported as 80 nM and the Kd ([2]; 1/KDimer 17 ± 2 nM) is reported as 10 nM.

B1: Non-specific DNA, unlabeled (CD) (dsDNA)
DNA 1: GAGTAGGGATCCCTACTC
DNA 2: GAGTAGGGATCCCTACTC
B1: binds [4].

B2: E-box, unlabeled (CD) (dsDNA)
DNA 1: GAGTAGCACGTGCTACTC
DNA 2: GAGTAGCACGTGCTACTC
B2: binds [5]; binds [6].

B3: E-box, fluorescein-labeled (dsDNA)
DNA 1: GAGTAGCACGTGCTACTC
DNA 2: GAGTAGCACGTGCTACTC
modifications: internal fluorescein-dT (iFluorT) at position 4
In the case of B3, the binding result [7] is reported as “binds”, the Kd [8] is reported as 4.8 nM and the Kd [9] is reported as 70 nM.

B4: Non-specific DNA, fluorescein-labeled (dsDNA)
DNA 1: GAGTAGGGATCCCTACTC
DNA 2: GAGTAGGGATCCCTACTC
modifications: internal fluorescein-dT (iFluorT) at position 4
For B4, the Kd [10] was 23 nM and the Kd [11] was 280 nM.
